For this assay, the target named is TET2 catalytic domain (TET2CD: a.a. 916-1921), recombinant from Sf9. Briefly: pull-down.

One molecule from PMC3684361 can be followed below.

B1: OGT, full-length, recombinant from Sf9 (enzyme)
chain: MASSVGNVADSTEPTKRMLSFQGLAELAHREYQAGDFEAAERHCMQLWRQEPDNTGVLLLLSSIHFQCRRLDRSAHFSTLAIKQNPLLAEAYSNLGNVYKERGQLQEAIEHYRHALRLKPDFIDGYINLAAALVAAGDMEGAVQAYVSALQYNPDLYCVRSDLGNLLKALGRLEEAKACYLKAIETQPNFAVAWSNLGCVFNAQGEIWLAIHHFEKAVTLDPNFLDAYINLGNVLKEARIFDRAVAAYLRALSLSPNHAVVHGNLACVYYEQGLIDLAIDTYRRAIELQPHFPDAYCNLANALKEKGSVAEAEDCYNTALRLCPTHADSLNNLANIKREQGNIEEAVRLYRKALEVFPEFAAAHSNLASVLQQQGKLQEALMHYKEAIRISPTFADAYSNMGNTLKEMQDVQGALQCYTRAIQINPAFADAHSNLASIHKDSGNIPEAIASYRTALKLKPDFPDAYCNLAHCLQIVCDWTDYDERMKKLVSIVADQLEKNRLPSVHPHHSMLYPLSHGFRKAIAERHGNLCLDKINVLHKPPYEHPKDLKLSDGRLRVGYVSSDFGNHPTSHLMQSIPGMHNPDKFEVFCYALSPDDGTNFRVKVMAEANHFIDLSQIPCNGKAADRIHQDGIHILVNMNGYTKGARNELFALRPAPIQAMWLGYPGTSGALFMDYIITDQETSPAEVAEQYSEKLAYMPHTFFIGDHANMFPHLKKKAVIDFKSNGHIYDNRIVLNGIDLKAFLDSLPDVKIVKMKCPDGGDNADSSNTALNMPVIPMNTIAEAVIEMINRGQIQITINGFSISNGLATTQINNKAATGEEVPRTIIVTTRSQYGLPEDAIVYCNFNQLYKIDPSTLQMWANILKRVPNSVLWLLRFPAVGEPNIQQYAQNMGLPQNRIIFSPVAPKEEHVRRGQLADVCLDTPLCNGHTTGMDVLWAGTPMVTMPGETLASRVAASQLTCLGCLELIAKNRQEYEDIAVKLGTDLEYLKKVRGKVWKQRISSPLFNTKQYTMELERLYLQMWEHYAAGNKPDHMIKPVEVTESA
With B1, the stoichiometry N was 1.

By stoichiometry N is commonly meant a count of units in the complex or per binding partner.
